Where a chain is given by its changes, count along the chain named.
B1: P10-1 Fab (Fab, V domains shown)
VH: QVQLVQSGAEVKKPGASVKVSCKASGYTFTNYGLSWVRQAPGQGLEWMGENHPGSGIIYHNEKFRGRVTLTADRSTSTAYMELSSLRSEDTAVYYCARSSGTRGFAYWGQGTLVTVSS
VL: DVVMTQTPLSLSVTPGQPASISCRSSQSIVHSNGNTYLEWYLQKPGQSPQLLIYRVSNRFSGVPDRFSGSGSGTDFTLKISRVEAEDVGVYYCFQGSHGPWTFGQGTKLEIKR
B2: P10-2 Fab (Fab, V domains shown)
VH: B1 VH with A106D
VL: B1 VL
modifications: heavy chain N-terminal glutamine modified into pyroglutamic acid in a great majority of purified antibodies (Example 2)

Biological target: human cancer-specific MUC1 (on breast cancer cell line T-47D cells) (human, UniProt P15941 24-1255, cancer-specific incomplete O-glycosylation (T, Tn, 2,3ST) of the tandem repeat, as described in the background)
Assay: Cell ELISA

Binder | Kd [nM]
B1 | 0.35
B2 | 0.29

— patent US20210340276A1 (published 2021)
